Five molecules from US20200317768A1 (published 2020) can be followed below.

Holding throughout (test): SPR (Biacore), KD of SG1 / KD of variant;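 further: relative to parent M103205H795-SG1 carrying the SG1 human heavy chain constant region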
A general note: SPR reads the build-up and loss of mass on a sensor chip optically.

In assay [1] the target is T1, cynomolgus monkey FcγRIIa1 extracellular domain, C-terminal His-tag (cynomolgus monkey).
T1 construct: also called cyno FcγRIIa1; cynoFcgRIIa1; not shown: His-tag added to C-terminus
T1 chain: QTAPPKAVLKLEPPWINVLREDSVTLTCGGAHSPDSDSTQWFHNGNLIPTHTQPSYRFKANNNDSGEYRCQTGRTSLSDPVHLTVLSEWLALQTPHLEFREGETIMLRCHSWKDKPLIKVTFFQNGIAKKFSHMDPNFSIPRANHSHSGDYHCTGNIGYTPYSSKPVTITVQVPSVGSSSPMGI

For assay [2], the target named is T2, cynomolgus monkey FcγRIIa2 extracellular domain, C-terminal His-tag (cynomolgus monkey).
T2 construct: also called cyno FcγRIIa2; cynoFcgRIIa2; not shown: His-tag added to C-terminus
T2 chain: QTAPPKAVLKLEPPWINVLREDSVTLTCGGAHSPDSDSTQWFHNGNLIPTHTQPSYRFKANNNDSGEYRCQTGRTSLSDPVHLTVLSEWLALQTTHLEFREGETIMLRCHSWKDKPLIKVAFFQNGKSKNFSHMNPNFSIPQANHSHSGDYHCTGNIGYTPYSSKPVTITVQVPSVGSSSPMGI

The target of assay [3] is T3, cynomolgus monkey FcγRIIb extracellular domain, C-terminal His-tag (cynomolgus monkey).
T3 construct: also called cyno FcγRIIb; cynoFcγRIIb; not shown: His-tag added to C-terminus
T3 chain: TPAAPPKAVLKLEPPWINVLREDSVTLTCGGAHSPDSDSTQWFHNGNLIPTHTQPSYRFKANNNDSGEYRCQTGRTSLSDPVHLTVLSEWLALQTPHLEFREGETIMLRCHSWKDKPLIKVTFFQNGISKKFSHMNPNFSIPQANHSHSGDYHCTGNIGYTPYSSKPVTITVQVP

Assay [4] concerns the target T4, cynomolgus monkey FcγRIIIaS extracellular domain, C-terminal His-tag (cynomolgus monkey, UniProt A3RFZ7 21-206 (rhesus entry)).
T4 construct: also called cyno FcγRIIIaS; cynoFcγRIIIaS; not shown: His-tag added to C-terminus

For assay [5], the target named is T5, human FcγRIIaH extracellular domain, C-terminal His-tag (human, UniProt P12318 34-217).
T5 construct: also called human FcγRIIa (type H); FcgRIIaH; not shown: His-tag added to C-terminus
T5 sequence: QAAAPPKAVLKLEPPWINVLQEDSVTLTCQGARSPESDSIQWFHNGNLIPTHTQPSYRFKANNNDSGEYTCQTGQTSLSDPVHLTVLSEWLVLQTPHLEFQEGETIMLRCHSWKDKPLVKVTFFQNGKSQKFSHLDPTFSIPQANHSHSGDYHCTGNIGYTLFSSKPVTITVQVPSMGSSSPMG

Assay [6] has as its target T6, human FcγRIIaR extracellular domain, C-terminal His-tag (human, UniProt P12318 34-217).
T6 construct: also called human FcγRIIa (type R); FcgRIIaR; not shown: His-tag added to C-terminus
T6 chain: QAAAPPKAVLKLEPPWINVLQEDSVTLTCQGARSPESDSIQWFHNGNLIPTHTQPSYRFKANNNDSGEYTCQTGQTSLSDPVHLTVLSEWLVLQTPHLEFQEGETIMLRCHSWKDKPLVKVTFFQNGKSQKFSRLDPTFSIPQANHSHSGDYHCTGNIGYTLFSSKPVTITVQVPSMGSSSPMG

Assay [7] deals with T7, human FcγRIIIaV extracellular domain, C-terminal His-tag (human, UniProt P08637 17-208).
T7 construct: also called FcgRIIIaV; not shown: His-tag added to C-terminus
T7 sequence (P08637 17-208 F176V): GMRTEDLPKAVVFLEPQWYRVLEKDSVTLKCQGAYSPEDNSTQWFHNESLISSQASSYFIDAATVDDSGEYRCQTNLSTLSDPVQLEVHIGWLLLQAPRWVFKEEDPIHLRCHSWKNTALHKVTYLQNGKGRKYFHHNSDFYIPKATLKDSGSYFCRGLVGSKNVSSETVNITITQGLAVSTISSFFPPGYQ

T4 sequence (A3RFZ7 21-206): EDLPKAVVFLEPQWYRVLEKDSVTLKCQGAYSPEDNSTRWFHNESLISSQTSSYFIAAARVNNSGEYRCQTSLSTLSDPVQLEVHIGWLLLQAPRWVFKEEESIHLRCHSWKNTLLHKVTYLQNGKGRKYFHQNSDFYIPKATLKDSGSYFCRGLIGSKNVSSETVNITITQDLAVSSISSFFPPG

B1: M103205H795-MY310/M103202L889-SK1 (antibody, human IgG1, kappa)
heavy: QVTLKESGPVLVKPTETLTLTCTVSGIDLSHDDISWVRQAPGKGLEWVGIISYAGSTYYASWAKGRLTISKDTSKNQVVLTMTNMDPVDTATYYCARGVPAYSHGGDLWGQGTLVTVSSASTKGPSVFPLAPSSKSTSGGTAALGCLVKDYFPEPVTVSWNSGALTSGVHTFPAVLQSSGLYSLSSVVTVPSSSLGTQTYICNVNHKPSNTKVDKKVEPKSCDKTHTCPPCPAPELLTGPSVFLFPPKPKDTLMISRTPEVTCVVVDVSEEDPEVKFNWYVDGVEVHNAKTKPREEQYNSTYRVVSVLTVLHQDWLNGKEYKCKVSNTALPKPIEKTISKAKGQPREPQVYTLPPSREEMTKNQVSLTCLVKGFYPSDIAVEWESNGQPENNYKTTPPVLDSDGSFFLYSKLTVDKSRWQQGNVFSCSVMHEALHNHYTQKSLSLSP
light: DIVMTQSPATLSLSPGERATLSCTSSQSVYHANWLSWFQQKPGQPPKLLIYWASTLAYGVPSRFSGSGSGTDFTLTISSLQPEDAATYYCAGGYGGGRYAFGQGTKVEIKRTVAAPSVFIFPPSDEQLKSGTASVVCLLNNFYPREAKVQWKVDNALQSGNSQESVTEQDSKDSTYSLSSTLTLSKADYEKHKVYACEVTHQGLSSPVTKSFNRGEC
B1: the “KD fold (SG1 = 1)” value in assay [1] is 1.1 fold; in assay [2], 1.8 fold; in assay [3], 1.9 fold; in assay [4] it was 0.2 fold; in assay [5], 1.7 fold; in assay [6] it was 2 fold. Moreover, the “KD fold (SG1 = 1)” value in assay [7] was found to be 0.12 fold.

B2: M103205H795-MY312/M103202L889-SK1 (antibody, human IgG1, kappa)
heavy: QVTLKESGPVLVKPTETLTLTCTVSGIDLSHDDISWVRQAPGKGLEWVGIISYAGSTYYASWAKGRLTISKDTSKNQVVLTMTNMDPVDTATYYCARGVPAYSHGGDLWGQGTLVTVSSASTKGPSVFPLAPSSKSTSGGTAALGCLVKDYFPEPVTVSWNSGALTSGVHTFPAVLQSSGLYSLSSVVTVPSSSLGTQTYICNVNHKPSNTKVDKKVEPKSCDKTHTCPPCPAPELLTGPSVFLFPPKPKDTLMISRTPEVTCVVVDVSEEDPEVKFNWYVDGVEVHNAKTKPREEQYNSTYRVVSVLTVLHQDWLNGKEYKCKVSNTALPKPIEKTISKAKGQPREPQVYTLPPSREEMTKNQVSLTCLVKGFYPSDIAVEWESNGQPENNYKTTPMVLDSDGSFFLYSKLTVDKSRWQQGNVFSCSVMHEALHNHYTQKSLSLSP
light: DIVMTQSPATLSLSPGERATLSCTSSQSVYHANWLSWFQQKPGQPPKLLIYWASTLAYGVPSRFSGSGSGTDFTLTISSLQPEDAATYYCAGGYGGGRYAFGQGTKVEIKRTVAAPSVFIFPPSDEQLKSGTASVVCLLNNFYPREAKVQWKVDNALQSGNSQESVTEQDSKDSTYSLSSTLTLSKADYEKHKVYACEVTHQGLSSPVTKSFNRGEC
Consider B2, for which the “KD fold (SG1 = 1)” value in assay [1] came out at 2.3 fold; in assay [2], 3.4 fold; in assay [3], 4.5 fold; in assay [4] it was 0.55 fold; in assay [5], 6.3 fold; in assay [6], 6.5 fold. Besides, the “KD fold (SG1 = 1)” value in assay [7] was found to be 0.29 fold.

B3: M103205H795-MY318/M103202L889-SK1 (antibody, human IgG1, kappa)
heavy: QVTLKESGPVLVKPTETLTLTCTVSGIDLSHDDISWVRQAPGKGLEWVGIISYAGSTYYASWAKGRLTISKDTSKNQVVLTMTNMDPVDTATYYCARGVPAYSHGGDLWGQGTLVTVSSASTKGPSVFPLAPSSKSTSGGTAALGCLVKDYFPEPVTVSWNSGALTSGVHTFPAVLQSSGLYSLSSVVTVPSSSLGTQTYICNVNHKPSNTKVDKKVEPKSCDKTHTCPPCPAPELLLGPSVFLFPPKPKDTLMISRTPEVTCVVVDVSEEDPEVKFNWYVDGVEVHNAKTKPREEQYNSTYRVVSVLTVLHQDWLNGKEYKCKVSNTALPKPIEKTISKAKGQPREPQVYTLPPSREEMTKNQVSLTCLVKGFYPSDIAVEWESNGQPENNYKTTPMVLDSDGSFFLYSKLTVDKSRWQQGNVFSCSVMHEALHNHYTQKSLSLSP
light: DIVMTQSPATLSLSPGERATLSCTSSQSVYHANWLSWFQQKPGQPPKLLIYWASTLAYGVPSRFSGSGSGTDFTLTISSLQPEDAATYYCAGGYGGGRYAFGQGTKVEIKRTVAAPSVFIFPPSDEQLKSGTASVVCLLNNFYPREAKVQWKVDNALQSGNSQESVTEQDSKDSTYSLSSTLTLSKADYEKHKVYACEVTHQGLSSPVTKSFNRGEC
B3: the “KD fold (SG1 = 1)” value in assay [1] was found to be 0.4 fold; in assay [2], 0.7 fold; in assay [3], 0.8 fold; in assay [4] it was 0.24 fold; in assay [5], 0.6 fold; in assay [6], 0.8 fold. For the same molecule, the “KD fold (SG1 = 1)” value in assay [7] was 0.05 fold.

B4: M103205H795-MY321/M103202L889-SK1 (antibody, human IgG1, kappa)
heavy: QVTLKESGPVLVKPTETLTLTCTVSGIDLSHDDISWVRQAPGKGLEWVGIISYAGSTYYASWAKGRLTISKDTSKNQVVLTMTNMDPVDTATYYCARGVPAYSHGGDLWGQGTLVTVSSASTKGPSVFPLAPSSKSTSGGTAALGCLVKDYFPEPVTVSWNSGALTSGVHTFPAVLQSSGLYSLSSVVTVPSSSLGTQTYICNVNHKPSNTKVDKKVEPKSCDKTHTCPPCPAPELLHGPSVFLFPPKPKDTLMISRTPEVTCVVVDVSDEDPEVKFNWYVDGVEVHNAKTKPREEQYNSTYRVVSVLTVLHQDWLNGKEYKCKVSNKALPKPIEKTISKAKGQPREPQVYTLPPSREEMTKNQVSLTCLVKGFYPSDIAVEWESNGQPENNYKTTPMVLDSDGSFFLYSKLTVDKSRWQQGNVFSCSVMHEALHNHYTQKSLSLSP
light: DIVMTQSPATLSLSPGERATLSCTSSQSVYHANWLSWFQQKPGQPPKLLIYWASTLAYGVPSRFSGSGSGTDFTLTISSLQPEDAATYYCAGGYGGGRYAFGQGTKVEIKRTVAAPSVFIFPPSDEQLKSGTASVVCLLNNFYPREAKVQWKVDNALQSGNSQESVTEQDSKDSTYSLSSTLTLSKADYEKHKVYACEVTHQGLSSPVTKSFNRGEC
Turning to B4, the “KD fold (SG1 = 1)” value in assay [1] was found to be 1.4 fold; in assay [2] it was 2.3 fold; in assay [3] it was 2.8 fold; in assay [4], 0.33 fold; in assay [5], 3.7 fold; in assay [6], 2.9 fold. The “KD fold (SG1 = 1)” value in assay [7] was 0.74 fold.

B5: M103205H795-MY311/M103202L889-SK1 (antibody, human IgG1, kappa)
heavy: QVTLKESGPVLVKPTETLTLTCTVSGIDLSHDDISWVRQAPGKGLEWVGIISYAGSTYYASWAKGRLTISKDTSKNQVVLTMTNMDPVDTATYYCARGVPAYSHGGDLWGQGTLVTVSSASTKGPSVFPLAPSSKSTSGGTAALGCLVKDYFPEPVTVSWNSGALTSGVHTFPAVLQSSGLYSLSSVVTVPSSSLGTQTYICNVNHKPSNTKVDKKVEPKSCDKTHTCPPCPAPELLTGPSVFLFPPKPKDTLMISRTPEVTCVVVDVSEEDPEVKFNWYVDGVEVHNAKTKPREELYNSTYRVVSVLTVLHQDWLNGKEYKCKVSNKALPKPIEKTISKAKGQPREPQVYTLPPSREEMTKNQVSLTCLVKGFYPSDIAVEWESNGQPENNYKTTPPVLDSDGSFFLYSKLTVDKSRWQQGNVFSCSVMHEALHNHYTQKSLSLSP
light: DIVMTQSPATLSLSPGERATLSCTSSQSVYHANWLSWFQQKPGQPPKLLIYWASTLAYGVPSRFSGSGSGTDFTLTISSLQPEDAATYYCAGGYGGGRYAFGQGTKVEIKRTVAAPSVFIFPPSDEQLKSGTASVVCLLNNFYPREAKVQWKVDNALQSGNSQESVTEQDSKDSTYSLSSTLTLSKADYEKHKVYACEVTHQGLSSPVTKSFNRGEC
On to B5, for which the “KD fold (SG1 = 1)” value amounted to 1.4 fold in assay [1]; 1.5 fold in assay [2]; 2.3 fold in assay [3]; 0.35 fold in assay [4]; 3.5 fold in assay [5]; 2.4 fold in assay [6]. In addition, the “KD fold (SG1 = 1)” value in assay [7] turned out to be 0.11 fold.
